Test results as given in IntAct's records for PubMed 21565175.

Key:
[1] = biological target: ARHGAP30, Q7Z6I6-2
[2] = biological target: rhg31_mouse Arhgap31 (UniProt A6X8Z5)
[3] = biological target: ARHGAP30, Q7Z6I6-2; remark: listed apart in the source

Sequence of ARHGAP30, Q7Z6I6-2 (Q7Z6I6 other isoform, or with tags, fused parts or gaps): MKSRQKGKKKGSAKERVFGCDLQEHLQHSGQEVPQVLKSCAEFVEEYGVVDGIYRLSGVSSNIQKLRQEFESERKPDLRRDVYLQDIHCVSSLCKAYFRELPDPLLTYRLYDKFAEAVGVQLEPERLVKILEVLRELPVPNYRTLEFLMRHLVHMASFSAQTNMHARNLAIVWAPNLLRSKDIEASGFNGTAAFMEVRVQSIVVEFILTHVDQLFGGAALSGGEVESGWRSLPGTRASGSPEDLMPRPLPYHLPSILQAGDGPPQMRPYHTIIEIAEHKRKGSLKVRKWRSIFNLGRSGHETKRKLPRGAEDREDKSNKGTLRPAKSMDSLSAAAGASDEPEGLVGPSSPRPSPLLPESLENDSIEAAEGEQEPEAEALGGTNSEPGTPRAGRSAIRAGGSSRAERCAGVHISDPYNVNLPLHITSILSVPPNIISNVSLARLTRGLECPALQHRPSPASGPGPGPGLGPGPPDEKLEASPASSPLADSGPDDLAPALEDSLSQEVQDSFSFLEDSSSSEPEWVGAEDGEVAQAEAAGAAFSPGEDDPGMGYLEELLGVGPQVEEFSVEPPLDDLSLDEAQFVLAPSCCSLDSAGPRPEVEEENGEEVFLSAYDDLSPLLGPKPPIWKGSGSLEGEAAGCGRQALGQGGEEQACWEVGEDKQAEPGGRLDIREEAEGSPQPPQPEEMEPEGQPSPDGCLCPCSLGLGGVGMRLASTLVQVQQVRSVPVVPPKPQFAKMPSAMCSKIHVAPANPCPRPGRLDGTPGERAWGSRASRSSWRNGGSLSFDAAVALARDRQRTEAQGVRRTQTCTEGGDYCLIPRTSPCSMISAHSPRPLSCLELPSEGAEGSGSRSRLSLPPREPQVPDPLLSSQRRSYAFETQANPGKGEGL
Sequence of rhg31_mouse Arhgap31 (A6X8Z5 whole entry): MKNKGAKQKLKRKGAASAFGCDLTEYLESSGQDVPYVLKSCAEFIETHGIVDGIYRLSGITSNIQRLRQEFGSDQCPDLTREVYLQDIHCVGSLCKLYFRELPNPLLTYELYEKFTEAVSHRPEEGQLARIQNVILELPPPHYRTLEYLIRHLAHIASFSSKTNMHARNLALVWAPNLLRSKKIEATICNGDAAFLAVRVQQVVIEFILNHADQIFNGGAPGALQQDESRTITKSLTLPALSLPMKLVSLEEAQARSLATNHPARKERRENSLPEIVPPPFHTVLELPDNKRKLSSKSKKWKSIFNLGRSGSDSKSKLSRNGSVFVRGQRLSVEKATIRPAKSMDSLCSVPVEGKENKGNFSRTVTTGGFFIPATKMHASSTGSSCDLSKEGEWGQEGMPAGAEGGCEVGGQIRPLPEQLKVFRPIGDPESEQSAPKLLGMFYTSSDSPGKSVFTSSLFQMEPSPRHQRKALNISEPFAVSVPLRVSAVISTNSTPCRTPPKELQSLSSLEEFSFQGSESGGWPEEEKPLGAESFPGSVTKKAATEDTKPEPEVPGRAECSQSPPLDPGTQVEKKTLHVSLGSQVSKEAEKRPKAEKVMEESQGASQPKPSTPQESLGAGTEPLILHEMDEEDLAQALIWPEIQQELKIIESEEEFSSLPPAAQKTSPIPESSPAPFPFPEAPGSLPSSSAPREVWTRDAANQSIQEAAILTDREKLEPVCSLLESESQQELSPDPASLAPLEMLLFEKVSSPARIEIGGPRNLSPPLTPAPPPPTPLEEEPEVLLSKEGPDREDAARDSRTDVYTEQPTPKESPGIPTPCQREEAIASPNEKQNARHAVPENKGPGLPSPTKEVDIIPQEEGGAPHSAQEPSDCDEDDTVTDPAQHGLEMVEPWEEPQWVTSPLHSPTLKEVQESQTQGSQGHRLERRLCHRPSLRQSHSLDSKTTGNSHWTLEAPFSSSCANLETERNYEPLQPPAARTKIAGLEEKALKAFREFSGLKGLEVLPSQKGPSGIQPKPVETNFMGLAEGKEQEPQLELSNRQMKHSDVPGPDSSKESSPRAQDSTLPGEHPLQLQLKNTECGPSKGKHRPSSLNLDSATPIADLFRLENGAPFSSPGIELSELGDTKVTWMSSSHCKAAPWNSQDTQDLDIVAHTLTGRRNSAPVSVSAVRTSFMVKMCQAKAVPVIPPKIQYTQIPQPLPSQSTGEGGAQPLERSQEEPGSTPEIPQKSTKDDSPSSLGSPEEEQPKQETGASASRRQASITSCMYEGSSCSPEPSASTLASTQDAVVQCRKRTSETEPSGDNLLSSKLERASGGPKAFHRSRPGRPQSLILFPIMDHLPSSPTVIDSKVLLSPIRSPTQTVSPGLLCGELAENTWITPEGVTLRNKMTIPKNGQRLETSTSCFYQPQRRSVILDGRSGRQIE
Sequence of Rho-related GTP-binding protein RhoU (Homo sapiens), Q7L0Q8 F86C (Q7L0Q8 whole entry F86C): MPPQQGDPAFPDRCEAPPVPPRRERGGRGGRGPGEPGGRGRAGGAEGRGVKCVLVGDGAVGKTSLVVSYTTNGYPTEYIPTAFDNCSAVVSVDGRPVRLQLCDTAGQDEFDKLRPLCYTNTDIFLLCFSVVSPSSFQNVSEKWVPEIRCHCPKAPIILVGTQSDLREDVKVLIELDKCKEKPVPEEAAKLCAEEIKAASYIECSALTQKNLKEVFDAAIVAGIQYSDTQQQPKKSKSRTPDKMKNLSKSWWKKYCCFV

Row | Substance | effect of a mutation on the interaction [1] | effect of a mutation on the interaction [2] | effect of a mutation on the interaction [3]
1 | Rho-related GTP-binding protein RhoU (Homo sapiens), Q7L0Q8 F86C | with no effect |  | 
2 | Rho-related GTP-binding protein RhoU (Homo sapiens), Q7L0Q8 P80G | with no effect |  | 

Second part, the substance after the results:

Row | effect of a mutation on the interaction [1] | effect of a mutation on the interaction [2] | effect of a mutation on the interaction [3] | Substance
3 | with no effect | with no effect |  | Rho-related GTP-binding protein RhoU (Homo sapiens), Q7L0Q8 Q107L
4 | disrupting interaction strength |  | decreasing interaction strength | Rho-related GTP-binding protein RhoU (Homo sapiens), Q7L0Q8 F83G
5 | with no effect | disrupting interaction strength |  | Rho-related GTP-binding protein RhoU (Homo sapiens), Q7L0Q8 T63N
